Measurements published in patent US6057104.
Blank lines part the entries; values can stand above or below the substance they belong to.

Columns and labels:
[1] = target: MmRad51, full length, fused to the GAL4 DNA-binding domain (the "bait") (mouse); assay: yeast two-hybrid in HF7c cells, full length MmRad51 bait, X-gal staining
[2] = target: MmRad51, full length, fused to the GAL4 DNA-binding domain (the "bait") (mouse); assay: yeast two-hybrid in HF7c cells, full length MmRad51 bait; relative to full length MmRad51 prey as 100%
[3] = target: MmRad51, full length, fused to the GAL4 DNA-binding domain (the "bait") (mouse); assay: yeast two-hybrid in HF7c cells, full length MmRad51 bait; relative to the positive control
[4] = target: MmRad51, full length, fused to the GAL4 DNA-binding domain (the "bait") (mouse); assay: yeast two-hybrid in HF7c cells, full length MmRad51 bait; the reference of the scale
[5] = target: mammalian Rad51 (MmRad51), wild-type protein of the cells (mouse)
[6] = target: MmRad51, full length, fused to the GAL4 DNA-binding domain (the "bait") (mouse); assay: yeast two-hybrid against full length MmRad51

- relative β-galactosidase activity [3]: 11%
Substance: MmRad51 deletion TR1-131, as two-hybrid prey

- relative β-galactosidase activity [3]: 9%
Substance: MmRad51 deletion TR1-175, as two-hybrid prey

- relative β-galactosidase activity [2]: 1
Substance: MmRad51 deletion TR131-339, as two-hybrid prey

Further lines, the substance ahead of its results:

Substance: MmRad51 deletion TR1-43, as two-hybrid prey
- time until yeast cells stained blue [1]: < 5 min
- relative β-galactosidase activity [2]: 43%

Substance: MmRad51 deletion TR1-93, as two-hybrid prey
- time until yeast cells stained blue [1]: 30 min
- relative β-galactosidase activity [2]: 4%

Substance: MmRad51 deletion TR43-339, as two-hybrid prey
- relative β-galactosidase activity [2]: 1

Substance: MmRad51, full length, as two-hybrid prey
- relative β-galactosidase activity [4]: 100%

Substance: altered Rad51 product encoded by rad51K-A134, expressed in ES cells
- relative targeting frequency (TG^r +G418^r /G418^r colonies) at HPRT in ES cells, IVH-tk as 100% [5]: 54%

Substance: rad51K-A134 product, as tested in the yeast two-hybrid system
- relative β-galactosidase activity [6]: 90%
